In patent publication US8871909B2, “Antibodies inhibiting c-Met dimerization and uses thereof” (Pierre Fabre Medicament, priority 2007, dated 2014):
Values belong to the molecule of their own block, whether it stands above or below them.

Legend:
NCI-H441 [1] = assay: In vivo combination of 224G11 and Navelbine on NCI-H441 xenograft model (Example 19); design: species or system Athymic nude mice; conditions: day 41 post first injection
Description: NCI-H441 cells from ATCC were routinely cultured in RPMI 1640 medium, 10% FCS, 1% L-Glutamine. Cells were split two days before engraftment being in exponential phase of growth. Ten million NCI-H441 cells were engrafted to Athymic nude mice. […] Mice were treated i.p. either with a loading dose of 2 mg of 224G11 Mab/mouse and then twice a week with 1 mg of antibody/mouse until Day 38 or with 3 injections of Navelbine® (D5, D12, D19) at 8 mg/kg. A third group administered with the combine treatment was also included. Navelbine® was given by i.p. injections. Tumor volume was measured twice a week and calculated by the formula: π/6×length×width×height and animal weights were monitored every day over the period of Navelbine® treatment. Statistical analysis was performed at each measured time using either a t-test or a Mann-Whitney test. […] Results are represented in FIG. 45.

c-Met = assay: BRET analysis of c-Met dimerization on c-Met transfected CHO cells; type: cell-based; conditions: CHO cells expressing C-Met-Rluc and C-Met-K1100A-YFP, supernatants
Sequence of c-Met (P08581 25-307 limits assumed): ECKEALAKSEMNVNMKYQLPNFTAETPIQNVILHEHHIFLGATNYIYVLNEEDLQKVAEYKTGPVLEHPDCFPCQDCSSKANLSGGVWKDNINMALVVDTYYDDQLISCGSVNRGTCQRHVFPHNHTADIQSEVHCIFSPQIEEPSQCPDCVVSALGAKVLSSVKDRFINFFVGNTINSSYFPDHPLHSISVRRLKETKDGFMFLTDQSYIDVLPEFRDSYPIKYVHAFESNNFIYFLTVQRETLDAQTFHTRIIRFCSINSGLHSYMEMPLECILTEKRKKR
Sequence of c-Met (P08581 308-932 limits assumed): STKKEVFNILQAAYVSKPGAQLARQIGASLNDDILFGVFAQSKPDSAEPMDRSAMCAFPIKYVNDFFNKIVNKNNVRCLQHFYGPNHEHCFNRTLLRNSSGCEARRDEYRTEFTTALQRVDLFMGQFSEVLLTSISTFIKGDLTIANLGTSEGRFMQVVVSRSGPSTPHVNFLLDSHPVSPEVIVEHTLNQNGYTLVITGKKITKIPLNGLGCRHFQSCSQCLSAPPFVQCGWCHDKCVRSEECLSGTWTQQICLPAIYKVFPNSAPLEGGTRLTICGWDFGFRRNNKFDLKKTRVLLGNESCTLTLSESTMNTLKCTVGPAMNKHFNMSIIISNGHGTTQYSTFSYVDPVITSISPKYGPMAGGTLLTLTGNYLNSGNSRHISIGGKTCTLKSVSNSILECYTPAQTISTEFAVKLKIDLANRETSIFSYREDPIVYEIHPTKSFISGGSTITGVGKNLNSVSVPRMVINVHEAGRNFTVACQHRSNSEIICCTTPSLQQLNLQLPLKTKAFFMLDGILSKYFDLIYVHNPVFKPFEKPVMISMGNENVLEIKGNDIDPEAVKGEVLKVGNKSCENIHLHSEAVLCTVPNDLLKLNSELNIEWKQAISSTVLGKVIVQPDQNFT
Description: The technology BRET, used in the step iii) of the process, is well known by the person skill in the art and will be detailed in the following examples. More particularly, BRET (Bioluminescence Resonance Energy Transfer) is a non-radiative energy transfer occurring between a bioluminescent donor (Renilla Luciferase (Rluc)) and a fluorescent acceptor, a mutant of GFP (Green Fluorescent Protein) or YFP (Yellow fluorescent protein). In the present case EYFP (Enhanced Yellow Fluorescent Protein) was used. The efficacy of transfer depends on the orientation and the distance between the donor and the acceptor. Then, the energy transfer can occur only if the two molecules are in close proximity (1-10 nm). This property is used to generate protein-protein interaction assays. Indeed, in order to study the interaction between two partners, the first one is genetically fused to the Renilla Luciferase and the second one to the yellow mutant of the GFP. Fusion proteins are generally, but not obligatory, expressed in mammalian cells. In presence of its membrane permeable substrate (coelenterazine), Rluc emits blue light. If the GFP mutant is closer than 10 nm from the Rluc, an energy transfer can occur and an additional yellow signal can be detected. The BRET signal is measured as the ratio between the light emitted by the acceptor and the light emitted by the donor. So the BRET signal will increase as the two fusion proteins are brought into proximity or if a conformational change bring Rluc and GFP mutant closer.
Then antibodies inhibiting at least 50% cell proliferation were evaluated as supernatants by BRET analysis on c-Met transfected cells. For that purpose, CHO stable cell lines expressing C-Met-Rluc or C-Met-Rluc and C-Met-K1100A-YFP were generated. Cells were distributed in white 96 well microplates in DMEM-F12/FBS 5% culture medium one or two days before BRET experiments. Cells were first cultured at 37° C. with CO2 5% in order to allow cell attachment to the plate. Cells were then starved with 200 μl DMEM/well overnight. Immediately prior to the experiment, DMEM was removed and cells quickly washed with PBS. Cells were incubated in PBS in the presence or absence of antibodies to be tested or reference compounds, 10 min at 37° C. prior to the addition of coelenterazine with or without HGF in a final volume of 50 μl. […]
BRET ratio has been defined previously [Angers et al., Proc. Natl. Acad. Sci. USA, 2000, 97:3684-3689] as: [(emission at 530 nm)−(emission at 485 nm)×Cf]/(emission at 485 nm), where Cf corresponds to (emission at 530 nm)/(emission at 485 nm) for cells expressing Rluc fusion protein alone in the same experimental conditions. […] For the sake of readability, results are expressed in milliBRET units (mBU); mBU corresponds to the BRET ratio multiplied by 1000.

BxPC3 cells = assay: In vitro inhibition of BxPC3 proliferation ([3H]thymidine incorporation); type: cell-based; conditions: BxPC3, in absence of ligand, antibody alone
Description: For that purpose 50 000 BxPC3 cells were plated in 96 well plates in RPMI medium, 2 mM L. Glutamine, without SVF. […] After 3 days, cells were pulsed with 0.5 μCi of [^3H]thymidine for 16 hours. The magnitude of [^3H]thymidine incorporated into trichloroacetic acid-insoluble DNA was quantified by liquid scintillation counting. Results were expressed as raw data to really evaluate the intrinsic agonistic effect of each Mab (FIGS. 2A and 2B).

HGF-cMet = target: T1, HGF-cMet (Homo sapiens, UniProt P08581); assay: HGF-cMet competition assay (ELISA); type: binding; conditions: at high antibody concentration, purified murine antibodies
T1 construct: recombinant c-Met-Extra-Cellular Domain (ECD) fused to an human IgG Fc domain
T1 sequence (P08581 25-932 limits assumed): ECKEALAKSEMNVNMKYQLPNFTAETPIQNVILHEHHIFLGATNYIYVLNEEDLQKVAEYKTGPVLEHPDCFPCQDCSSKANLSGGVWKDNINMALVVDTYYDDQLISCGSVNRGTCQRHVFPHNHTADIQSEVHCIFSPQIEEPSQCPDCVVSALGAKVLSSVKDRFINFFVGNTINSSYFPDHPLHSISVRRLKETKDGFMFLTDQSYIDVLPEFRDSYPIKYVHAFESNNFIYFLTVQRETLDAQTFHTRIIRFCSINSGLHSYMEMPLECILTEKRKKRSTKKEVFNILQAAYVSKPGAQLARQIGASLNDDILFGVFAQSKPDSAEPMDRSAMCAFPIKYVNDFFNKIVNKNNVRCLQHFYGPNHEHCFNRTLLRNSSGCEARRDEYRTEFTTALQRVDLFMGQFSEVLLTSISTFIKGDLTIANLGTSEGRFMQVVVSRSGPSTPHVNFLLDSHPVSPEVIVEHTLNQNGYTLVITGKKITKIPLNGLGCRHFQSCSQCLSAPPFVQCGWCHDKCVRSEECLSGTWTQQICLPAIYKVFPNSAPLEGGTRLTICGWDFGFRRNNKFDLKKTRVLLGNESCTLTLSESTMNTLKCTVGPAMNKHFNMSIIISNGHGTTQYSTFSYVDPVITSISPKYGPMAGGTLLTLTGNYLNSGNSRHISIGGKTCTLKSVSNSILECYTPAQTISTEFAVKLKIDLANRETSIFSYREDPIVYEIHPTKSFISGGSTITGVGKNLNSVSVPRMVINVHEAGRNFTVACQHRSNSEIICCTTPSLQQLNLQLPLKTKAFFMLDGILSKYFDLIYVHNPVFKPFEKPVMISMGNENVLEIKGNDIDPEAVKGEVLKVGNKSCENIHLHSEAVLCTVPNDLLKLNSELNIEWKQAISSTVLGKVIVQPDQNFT
Description: FIG. 54: HGF-cMet competition assay. In this ELISA-based assay, recombinant Fc-cMET residual binding to plastic coated HGF in the presence of purified murine monoclonal antibodies 11E1, 224G11 and 227H1 was detected with […] and measured at 450 nm;
FIG. 58: HGF-cMet competition assay of 227H1 murine and recombinant antibodies. In this ELISA-based assay, recombinant Fc-cMet residual binding to plastic coated HGF in the presence of the different forms of the 227H1 antibody was detected with a biotinylated unrelated anti-cMet antibody. Purified murine 227H1 monoclonal antibody, chimeric and HZ4VH-derived humanized 227H1-derived recombinant antibodies were tested and compared for their abilities to compete with HGF-cMet binding when measured at 450 nm;
Humanization of the anti-cMet antibodies were performed independently for each chain and sequentially, regarding to the analysed amino acids in each variable domain. The humanization process was evaluated in a first attempt in an ELISA-based binding assay to recombinant Fc-cMet; binding activities the humanized antibodies being compared to the recombinant chimeric antibody. In a second attempt, anti-cMet humanized antibodies were evaluated for their abilities to displace the Fc-cMet binding onto plastic-coated recombinant HGF; this competition assay allowing the direct comparison of murine, chimeric and humanized versions of the anti-cMet antibodies.
These two assays were used to characterize the recombinant chimeric and humanized versions of the murine anti-cMet antibodies. To this end, briefly, anti-cMet variable domains, either murine or humanized, were cloned into LONZA's pCONplus expression vectors series and recombinant IgG1/κ-derived antibodies were expressed in CHO cells. […] Both direct binding and HGF-competition assays were assessed to better characterize recombinant chimeric or humanized versions.

A549 cells = assay: Matrigel invasion assay with A549 cells; type: cell-based; conditions: A549, Mab 10 μg/ml, basal (no HGF)
Description: To evaluate the inhibiting effect of the anti-c-Met antibodies on the invasion process, A549 cells were plated in the upper chamber of BD BioCoat™ Matrigel™ invasion chambers (6.5 mm diameter wells with 8-μm pre size polycarbonate membranes). A459 cells were starved 24 hours before performing the invasion assay. Then 500 000 A549 cells were plated in chemotaxis buffer (DMEM medium, 0.1% BSA, 12 mM Hepes) in the upper well of each chamber, upon the Matrigel coating either with or without the antibody to be tested (final Mab concentration 10 μg/ml). After 1 hour incubation of the plates at 37° C. with 5% CO2, the lower chambers were filled with either growth medium containing 400 ng/ml of rhHGF or with growth medium alone. The chambers were incubated for 48 additional hours at 37° C. with 5% CO2. At the end of this incubation time, cells that remained on upper surface of the filter were gently removed with a cotton swab, cells that migrated to the lower surface of the filter were lysed, stained with CyQuant GR dye buffer (Invitrogen) and counted using a fluorescence reader Berthold Mithras LB940. All conditions were tested as triplicates.

SEMA domain = target: T2, SEMA domain (Homo sapiens, UniProt P08581); assay: ELISA recognition of recombinant SEMA domain; type: binding
T2 construct: the recombinant c-Met-Fc protein and the recombinant SEMA domain
T2 sequence (P08581 27-515 limits assumed): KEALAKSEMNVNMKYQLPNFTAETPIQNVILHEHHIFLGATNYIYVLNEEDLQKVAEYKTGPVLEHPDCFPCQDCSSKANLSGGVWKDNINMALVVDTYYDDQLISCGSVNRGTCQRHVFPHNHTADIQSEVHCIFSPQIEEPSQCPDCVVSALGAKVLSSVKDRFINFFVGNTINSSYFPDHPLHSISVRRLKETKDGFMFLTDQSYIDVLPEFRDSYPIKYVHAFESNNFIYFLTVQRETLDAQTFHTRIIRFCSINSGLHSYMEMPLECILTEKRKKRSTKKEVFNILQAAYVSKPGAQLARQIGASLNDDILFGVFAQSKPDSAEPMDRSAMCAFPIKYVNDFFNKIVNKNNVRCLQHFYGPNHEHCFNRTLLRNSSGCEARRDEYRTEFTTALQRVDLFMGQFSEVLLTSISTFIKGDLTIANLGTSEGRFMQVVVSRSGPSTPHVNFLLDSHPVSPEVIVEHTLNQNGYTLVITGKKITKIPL
Description: To characterize the pattern of recognition of the 3 selected antibodies, 3 ELISA have been set up with the recombinant c-Met protein, its monomeric fragment (obtained by cleavage of the recombinant c-Met-Fc protein and the recombinant SEMA domain.
To perform these ELISA the human dimeric c-Met protein (R&D sytems, cat#358MT) is coated at the concentration of 0.7 μg/ml in PBS overnight at 4° C. After saturation of the plates (Costar #3690) with a 0.5% gelatin solution 2 hours at 37° C., hybridoma supernatants are incubated 1 hour at 37° C. Once rinsed with PBS, the anti-mouse HRP-antibody (Jackson ImmunoResearch, catalog #115-035-164) is added to each well at a 1/5000 dilution in ELISA buffer (0.1% gelatin/0.05% Tween 20 in PBS) and the plates incubated for 1 hour at 37° C. […] The reaction is left to occur for 5 min at room temperature. The reaction is stopped by the addition of 50 μl/well of a 1 M H2SO4 solution and read on a plate reader at 450 nm. The same kind of protocol was performed on monomeric c-Met and SEMA domain but in that cases proteins were coated at 5 and 3 μg/ml respectively.

NCI-H441 [2] = assay: NCI-H441 xenograft model (Example 11)
Description: The evaluation of anti-c-met antibodies on the in vivo activity of this non autocrine cell line could give some insights about their potency to impact on c-met dimerization.

[3] = target: T3, recombinant c-Met-Extra-Cellular Domain (ECD) fused to an human IgG Fc domain (Homo sapiens, UniProt P08581); assay: Determination of affinity constants (KD) by Biacore analysis; type: binding; conditions: first column; Fab fragments, 25° C.
T3 construct: recombinant c-Met-Extra-Cellular Domain (ECD) fused to an human IgG Fc domain (R&D Systems) as antigen; purchased R&D Systems
T3 sequence (P08581 25-932 limits assumed): as the sequence (P08581 25-932 limits assumed) above
Description: The binding affinity of purified 11E1 and 224G11 antibodies was investigated by BIAcore X using recombinant c-Met-Extra-Cellular Domain (ECD) fused to an human IgG Fc domain (R&D Systems) as antigen (MW=129 kDa). As both c-Met-Fc fusion proteins and antibodies are bivalent compounds, Fab fragments of mAbs 11E1 and 224G11 (MW=50 kDa) were generated by papain cleavage, purified and used in this assay to avoid interference with avidity parameter. For the assay, an anti-Tag histidine capture antibody was coated on CM5 sensorchips. The running buffer was HBS-EP, the flow rate was 30 μl/min and the test was performed at 25° C. Soluble c-Met (ECD_M1)2-Fc-(HHHHHH)2 antigen was captured on the sensorchip (around 270 RU), and the antibodies to be tested were used in solution as analytes. The sensorship was regenerated using Glycine, HCl pH 1.5 buffer on both flowcells for half a minute.

maximum of HGF binding displacement (HGF-cMet): 100%
binding to SEMA domain (SEMA domain): did not bind
B1: 227H1: murine anti-c-Met monoclonal antibody, IgG1 kappa; heavy chain SEQ ID No. 19, light chain SEQ ID No. 22 (antibody, V domains shown)
VH: EVQLQQSGPELVKPGASMKISCKASGYSFTDYTLNWVKQSHGKTLEWIGLINPYNGGTTYNQKFKGKATLTVDKSSSTAYMELLSLTSEDSAVYYCAREEITKDFDFWGQGTTLTVSS
VL: GIVLTQSPASLAVSLGQRATISCRVSESIDTYGNSFIHWYQQKPGQPPKLLIYRASNLESGIPARFSGSGSRTDFTLTINPVEADDSATYYCQQSNEDPFTFGSGTKLEMK
modifications: mus musculus
inhibition of dimerization (c-Met): 52%
agonist activity on cell proliferation (BxPC3 cells): without any agonist activity
agonist effect on invasion, added alone (A549 cells): No agonist effect
inhibition of in vivo growth of NCI-H441 (NCI-H441 [2]): inhibited significantly

Kon1 × 10^−6 [1/M · s] [3]: 2.04 ± 0.01 × 10^−6 [1/M · s]
B2: 224G11 Fab: Fab fragment of mAb 224G11 generated by papain cleavage (antibody, V domains shown)
VH: EVQLQQSGPELVKPGASVKISCKTSGYIFTAYTMHWVRQSLGESLDWIGGIKPNNGLANYNQKFKGKATLTVDKSSSTAYMDLRSLTSEDSAVYYCARSEITTEFDYWGQGTALTVSS
VL: DIVLTQSPASLAVSLGQRATISCRASESVDSYANSFMHWYQQKPGQPPKLLIYRASNLESGIPARFSGSGSRTDFTLTINPVEADDVATYYCQQSKEDPLTFGSGTKLEMK

The next lines start with the molecule.

Molecule: CCC1=C[C@@H]2CN(C1)Cc1c([nH]c3ccccc13)[C@@](C(=O)OC)(c1cc3c(cc1OC)N(C)[C@H]1[C@@](O)(C(=O)OC)[C@H](OC(C)=O)[C@]4(CC)C=CCN5CC[C@]31[C@@H]54)C2 [Navelbine®, reference compound]
reduction of average tumor volume (NCI-H441 [1]): 76%

B3: 11E1 Fab: Fab fragment of mAb 11E1 generated by papain cleavage (antibody, V domains shown)
VH: QVQLQQSGAELAKPGASVKMSCKASGYTFTSYWMNWVKQRPGQGLEWIGYINPTTGSTDYNQKLKDKATLTADKSSNTAYMQLSSLTSEDSAVYYCAIGGYGSWFAYWGQGTLVTVSA
VL: QIVLTQSPAIMSASPGEKVTLTCSASSSVSSTYLYWYQQKPGSSPKLWIYTTSILASGVPARFSGSGSGTSYSLTISSMETEDAASYFCHQWSSYPFTFGSGTKLDIK
Kon1 × 10^−6 [1/M · s] [3]: 1.13 ± 0.01 × 10^−6 [1/M · s]
